Square brackets hold non-standard residues; d marks the D form. Ends that are not written are not given here. Nle = CCCC[C@H](N)C(=O)O
What was measured:
mutant G551D CFTR = mutant G551D CFTR (UniProt P13569 1-1480, limits assumed); assay: cell-based or functional assay
[1] = target: wild-type CFTR (cystic fibrosis transmembrane conductance regulator) (UniProt P13569 1-1480, limits assumed); assay: cell-based or functional assay
Sequence of wild-type CFTR (cystic fibrosis transmembrane conductance regulator) (P13569 whole entry): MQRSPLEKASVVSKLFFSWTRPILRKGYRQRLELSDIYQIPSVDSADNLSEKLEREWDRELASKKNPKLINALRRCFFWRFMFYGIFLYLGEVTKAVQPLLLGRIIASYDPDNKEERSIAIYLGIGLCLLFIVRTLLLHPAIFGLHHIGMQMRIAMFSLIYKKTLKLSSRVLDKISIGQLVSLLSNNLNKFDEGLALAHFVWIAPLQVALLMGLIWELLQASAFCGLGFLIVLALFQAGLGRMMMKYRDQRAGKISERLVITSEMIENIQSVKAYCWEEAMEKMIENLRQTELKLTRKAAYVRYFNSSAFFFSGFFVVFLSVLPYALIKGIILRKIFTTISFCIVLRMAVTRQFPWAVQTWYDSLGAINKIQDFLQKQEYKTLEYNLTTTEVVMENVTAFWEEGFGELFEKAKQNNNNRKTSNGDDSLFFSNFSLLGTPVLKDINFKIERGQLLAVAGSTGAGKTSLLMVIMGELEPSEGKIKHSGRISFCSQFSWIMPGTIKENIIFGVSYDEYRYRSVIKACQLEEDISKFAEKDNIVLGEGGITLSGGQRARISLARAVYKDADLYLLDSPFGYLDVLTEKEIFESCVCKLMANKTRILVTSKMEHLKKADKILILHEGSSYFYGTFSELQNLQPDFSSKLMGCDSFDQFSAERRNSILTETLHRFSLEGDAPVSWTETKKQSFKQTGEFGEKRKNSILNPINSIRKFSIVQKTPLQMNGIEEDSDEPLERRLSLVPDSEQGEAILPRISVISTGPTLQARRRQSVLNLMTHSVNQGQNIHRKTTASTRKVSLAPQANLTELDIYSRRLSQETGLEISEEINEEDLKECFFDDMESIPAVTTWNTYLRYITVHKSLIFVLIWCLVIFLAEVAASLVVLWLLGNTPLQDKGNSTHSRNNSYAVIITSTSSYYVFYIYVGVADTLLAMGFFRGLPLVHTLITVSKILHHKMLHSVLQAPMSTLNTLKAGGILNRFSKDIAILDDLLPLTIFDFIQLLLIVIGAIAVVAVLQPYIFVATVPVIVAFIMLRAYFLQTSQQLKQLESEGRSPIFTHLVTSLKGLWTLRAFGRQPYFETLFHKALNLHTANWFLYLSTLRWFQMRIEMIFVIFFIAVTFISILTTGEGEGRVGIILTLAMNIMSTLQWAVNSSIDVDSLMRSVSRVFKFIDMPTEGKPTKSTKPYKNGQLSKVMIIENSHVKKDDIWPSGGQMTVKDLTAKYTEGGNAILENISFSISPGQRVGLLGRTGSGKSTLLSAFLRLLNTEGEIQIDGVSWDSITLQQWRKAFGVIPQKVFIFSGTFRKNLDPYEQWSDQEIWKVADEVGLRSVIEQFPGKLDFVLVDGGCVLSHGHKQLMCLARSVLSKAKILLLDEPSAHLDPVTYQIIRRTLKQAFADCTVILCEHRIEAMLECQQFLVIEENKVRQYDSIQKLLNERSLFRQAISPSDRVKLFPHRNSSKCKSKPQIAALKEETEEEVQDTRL

Sequence of mutant G551D CFTR (P13569 whole entry G551D): as the sequence (P13569 whole entry) above, with G551D counted along it

- open probability in planar lipid bilayer (mutant G551D CFTR): ~3 fold
- open probability (Po) of CFTR channels in planar lipid bilayer [1]: 2 fold
- open probability of single wt-CFTR channels in planar lipid bilayer, 4 µM peptide, 5 experiments [1]: ~2 fold
B1: Q4N2NEG2 polypeptide (peptide)
peptide: Ac-GLEISEQINQQNLKQSFFND[Nle]E

Source: patent publication US20030100501A1 (CASE WESTERN RESERVE UNIVERSITY, published 2003)
